These are literature values, as cited in publication PMC3601411.

The series has as its target Fibrinogen gamma chain C-terminal region (Homo sapiens) (UniProt P02679). Description: isothermal calorimetry.

The Kd is the concentration at which binding is half-saturated. With “Clumping factor A (ClfA) 229-545 (from UniProt Q2G015)”, the Kd is 657 nM.
